Data on one molecule can be found in US20260028402A1 (published 2026).

In experiment [1] the target is T1, HuCD100-Fc (in-house prepared) (human, UniProt Q92854 22-734, biotinylated in the Plexin binding and blocking assays (sites not given)). Put plainly: FACS blocking; HuPlexin-B2-HEK293, FIG. 12C.
Experiment [2] concerns the target T2, MusCD100-His (mouse, UniProt O09126 24-733).
T2 chain: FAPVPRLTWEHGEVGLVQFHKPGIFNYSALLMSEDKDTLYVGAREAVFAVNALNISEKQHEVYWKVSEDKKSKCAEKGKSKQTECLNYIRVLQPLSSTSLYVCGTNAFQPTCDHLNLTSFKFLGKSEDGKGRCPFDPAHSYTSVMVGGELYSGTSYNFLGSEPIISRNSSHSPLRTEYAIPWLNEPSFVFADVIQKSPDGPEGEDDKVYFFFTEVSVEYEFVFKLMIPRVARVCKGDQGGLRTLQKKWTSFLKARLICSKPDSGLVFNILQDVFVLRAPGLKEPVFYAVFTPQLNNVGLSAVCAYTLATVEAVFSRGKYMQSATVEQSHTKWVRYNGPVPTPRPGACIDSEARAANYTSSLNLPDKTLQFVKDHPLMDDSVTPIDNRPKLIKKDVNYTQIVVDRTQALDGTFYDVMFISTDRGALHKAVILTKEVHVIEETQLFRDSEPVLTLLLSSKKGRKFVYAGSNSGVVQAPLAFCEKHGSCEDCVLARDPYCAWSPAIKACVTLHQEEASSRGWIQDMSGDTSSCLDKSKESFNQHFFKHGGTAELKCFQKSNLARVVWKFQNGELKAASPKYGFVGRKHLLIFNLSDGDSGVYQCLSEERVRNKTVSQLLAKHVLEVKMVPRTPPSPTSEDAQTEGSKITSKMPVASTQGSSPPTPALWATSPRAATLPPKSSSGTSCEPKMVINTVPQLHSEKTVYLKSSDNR
Description: ELISA; FIG. 5E.

The target of another experiment is CynoCD100-HEK293 (cynomolgus monkey). Put plainly: FACS.
Experiment [3] has as its target T3, full-length human CD100 protein HuCD100 on cells (human, UniProt Q92854 22-862). Put plainly: FACS; HuPBMC cells.
Experiment [4] has as its target CynoCD100-His (cynomolgus monkey). Put plainly: ELISA; FIG. 5C.
In experiment [5] the target is T4, HuCD100-His (human, UniProt Q92854 22-734). Put plainly: ELISA; FIG. 5A.
Experiment [6] has as its target Human Semaphorin 4D/SEMA4D/CD100 Protein, Fc Tag (Acro, CD0-H5257) (human, UniProt Q92854 22-734). Put plainly: ELISA; last HuCD100-Fc row.
For experiment [7], the target named is T4, HuCD100-His. Description: ELISA; FIG. 5D.
The next experiment has as its target CynoCD100-Fc (cynomolgus monkey). Description: ELISA.
For experiment [8], the target named is CynoCD100-His (cynomolgus monkey). Put plainly: ELISA.
The target in experiment [9] is T5, full-length mouse CD100 protein MusCD100 on cells (mouse, UniProt O09126 24-861).
T5 chain: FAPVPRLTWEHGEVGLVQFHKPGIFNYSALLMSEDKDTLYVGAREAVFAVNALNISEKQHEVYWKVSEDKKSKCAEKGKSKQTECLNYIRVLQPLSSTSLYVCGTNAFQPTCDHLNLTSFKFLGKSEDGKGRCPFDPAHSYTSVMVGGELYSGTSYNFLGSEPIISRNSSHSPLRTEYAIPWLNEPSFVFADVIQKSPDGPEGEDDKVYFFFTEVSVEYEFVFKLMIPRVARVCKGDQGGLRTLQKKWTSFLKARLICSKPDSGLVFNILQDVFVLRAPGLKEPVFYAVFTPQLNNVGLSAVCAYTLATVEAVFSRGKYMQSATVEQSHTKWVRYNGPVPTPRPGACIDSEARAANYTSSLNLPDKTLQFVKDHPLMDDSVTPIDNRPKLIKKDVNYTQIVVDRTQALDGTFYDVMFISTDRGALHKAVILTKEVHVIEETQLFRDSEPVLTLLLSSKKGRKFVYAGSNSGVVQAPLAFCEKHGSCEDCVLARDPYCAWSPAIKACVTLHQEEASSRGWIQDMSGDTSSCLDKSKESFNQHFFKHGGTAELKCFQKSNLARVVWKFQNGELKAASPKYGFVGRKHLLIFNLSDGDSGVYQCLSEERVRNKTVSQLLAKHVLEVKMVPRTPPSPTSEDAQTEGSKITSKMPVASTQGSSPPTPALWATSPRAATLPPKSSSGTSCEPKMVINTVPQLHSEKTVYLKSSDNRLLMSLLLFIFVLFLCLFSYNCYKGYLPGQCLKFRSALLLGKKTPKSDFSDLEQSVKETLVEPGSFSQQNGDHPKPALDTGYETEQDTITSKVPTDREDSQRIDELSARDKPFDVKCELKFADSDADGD
Description: FACS.

In experiment [10] the target is T3, full-length human CD100 protein HuCD100 …. Description: FACS.
Experiment [11] deals with T1, HuCD100-Fc (in-house prepared). Description: FACS blocking; FIG. 8B, blocking of binding to HuPlexin-B2-HEK293.
The target of experiment [12] is T2, MusCD100-His. Description: ELISA; FIG. 5B.
Experiment [13] deals with T4, HuCD100-His. Put plainly: ELISA.
Experiment [14] has as its target T2, MusCD100-His. Put plainly: ELISA.

B1: Pepinemab (antibody, V domains shown)
VH: QVQLVQSGAEVKKPGSSVKVSCKASGYSFSDYYMHWVRQAPGQGLEWMGQINPTTGGASYNQKFKGKATITVDKSTSTAYMELSSLRSEDTAVYYCARYYYGRHFDVWGQGTTVTVSS
VL: DIVMTQSPDSLAVSLGERATINCKASQSVDYDGDSYMNWYQQKPGQPPKLLIYAASNLESGVPDRFSGSGSGTDFTLTISSLQAEDVAVYYCQQSNEDPYTFGQGTKLEIK
As to B1, the IC50 in experiment [1] worked out at 1.45 nM; in experiment [11] it was 0.766 nM. For the same molecule, the EC50 came to 0.143 nM with MusCD100-His [2]; 0.271 nM with CynoCD100-HEK293; 0.412 nM in [3]; 0.117 nM in the experiment with CynoCD100-His [4]; 0.0383 nM in the experiment with HuCD100-His [5]; 0.0659 µg/mL in experiment [6]. Also, the EC50 with HuCD100-His [7] stood at 0.0376 nM; with CynoCD100-Fc it was 0.388 µg/mL; in the experiment with CynoCD100-His [8], 0.128 µg/mL; in experiment [9], 0.307 nM; in experiment [10], 0.426 nM; with MusCD100-His [12], 0.205 nM. The EC50 with HuCD100-His [13] was found to be 0.122 nM; with MusCD100-His [14], 0.0908 nM.
